From the supplement of paper PMC10126150
± gives the standard deviation of the averaged measurements.

test system: ATP; assay: switch fluorescence ratio, 500 uM ATP over buffer (Cy3 cluster intensity, sum of 5 cycles each) (fold (ratio)); higher = stronger signal-on switching upon ATP binding; sequences stand for … in TCGTCGGCAGCGTCAGATGTGTATAAGAGACAGTTTTTTTTTTTTTTTTTTTTTTTTT…TC; conditions: aptamer strand: ATP DNA aptamer (quencher-CACCTGGGGGAGTATTGCGGAGGAAGG + anchor), 100 nM annealed; ATP concentration: 500 uM
How it was run: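 Five buffer/ATP imaging cycles were run on Cy3-labelled switching-strand clusters on a modified Illumina MiSeq flow-cell, with NaOH stripping and re-annealing between cycles. In each cycle, clusters annealed to 100 nM quencher-labelled ATP aptamer were imaged in selection buffer, then after 15 min with 500 uM ATP at 22 °C. Per cluster, the fluorescence ratio is summed target-cycle over summed buffer-cycle Cy3 intensity, averaged per switch-domain sequence. Only clusters within 100-1000 RFU were kept.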
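Further: ATP exposure 15 min at 22 °C before imaging.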

**Q.** For ACCCAAACAA, which switch fluorescence ratio is on record?
**A.** 1.06 ± 0.028

**Q.** TATACATTCA was tested. Which switch fluorescence ratio did it give?
**A.** 1.07 ± 0.019

**Q.** Which switch fluorescence ratio does the source give for TAAGTATTTT here?
**A.** 1.01 ± 0.027

**Q.** Which switch fluorescence ratio does the source give for AAAAGGGTAG here?
**A.** 1.01 ± 0.018

**Q.** TTGTGTTTTC was tested. Which switch fluorescence ratio did it give?
**A.** 0.9971 ± 0.006

**Q.** For GGGCCCTGGG, which switch fluorescence ratio is on record?
**A.** 0.994 ± 0.059

**Q.** For TTGGGCCTGA, which switch fluorescence ratio is on record?
**A.** 1.002 ± 0.0032

**Q.** CAGCTAGTGG was tested. Which switch fluorescence ratio did it give?
**A.** 1.011 ± 0.0011

**Q.** Which switch fluorescence ratio does the source give for TGATTCGTAC here?
**A.** 1.03 ± 0.028

**Q.** TTATGGTGT was tested. Which switch fluorescence ratio did it give?
**A.** 1.0044 ± 0.00076

**Q.** How did the switch fluorescence ratio turn out when TACAGGGCCT was run?
**A.** 0.9882 ± 0.0085

**Q.** How did the switch fluorescence ratio turn out when TTGCGAGTC was run?
**A.** 0.996 ± 0.062

**Q.** How did the switch fluorescence ratio turn out when AGGGCGAAGA was run?
**A.** 0.96 ± 0.022

**Q.** With GAAAGGGATG as the sequence, how does the switch fluorescence ratio read?
**A.** 1.03 ± 0.029

**Q.** How did the switch fluorescence ratio turn out when TGAACTTGCT was run?
**A.** 1.02 ± 0.074

**Q.** Which switch fluorescence ratio does the source give for TGACTTTTTA here?
**A.** 0.9933 ± 0.0075

**Q.** AAGGGGCCGG was tested. Which switch fluorescence ratio did it give?
**A.** 1.0099 ± 8.3e-05

**Q.** How did the switch fluorescence ratio turn out when TAATTTGATG was run?
**A.** 0.979 ± 0.027

**Q.** ATTAAATTTT was tested. Which switch fluorescence ratio did it give?
**A.** 1.01 ± 0.032

**Q.** Which switch fluorescence ratio does the source give for ATTATCGTAG here?
**A.** 0.994 ± 0.035

**Q.** For CGGGGCGGCA, which switch fluorescence ratio is on record?
**A.** 0.998 ± 0.032

**Q.** AAGTAGGGGG was tested. Which switch fluorescence ratio did it give?
**A.** 0.951 ± 0.016

**Q.** With GACCATACGC as the sequence, how does the switch fluorescence ratio read?
**A.** 1.42 ± 0.055

**Q.** TTTCGGAGTG was tested. Which switch fluorescence ratio did it give?
**A.** 1.024 ± 0.0066

**Q.** GACTATTATG was tested. Which switch fluorescence ratio did it give?
**A.** 1 ± 0.019

**Q.** For GATGTTGCCG, which switch fluorescence ratio is on record?
**A.** 1.05 ± 0.057

**Q.** TGAAGGGAAA was tested. Which switch fluorescence ratio did it give?
**A.** 1 ± 0.051

**Q.** For TATAGGCTTT, which switch fluorescence ratio is on record?
**A.** 0.97 ± 0.024

**Q.** Which switch fluorescence ratio does the source give for TTTAATACTT here?
**A.** 1.03 ± 0.0052

**Q.** With AAAGAGGCAA as the sequence, how does the switch fluorescence ratio read?
**A.** 1.03 ± 0.047

**Q.** With AAAAACGTCT as the sequence, how does the switch fluorescence ratio read?
**A.** 1.1 ± 0.016

**Q.** How did the switch fluorescence ratio turn out when TTCAGTTTAG was run?
**A.** 1 ± 0.031

**Q.** For GGTCGACTTT, which switch fluorescence ratio is on record?
**A.** 1.0094 ± 0.00072

**Q.** TGTTTGACAT was tested. Which switch fluorescence ratio did it give?
**A.** 0.98 ± 0.02

**Q.** For TTTATAGGGC, which switch fluorescence ratio is on record?
**A.** 1.01 ± 0.021

**Q.** How did the switch fluorescence ratio turn out when AGGTTACCGG was run?
**A.** 0.987 ± 0.019

**Q.** Which switch fluorescence ratio does the source give for GTTGAAACAC here?
**A.** 1.02 ± 0.046

**Q.** ATTTCGTGCG was tested. Which switch fluorescence ratio did it give?
**A.** 1.01 ± 0.061

**Q.** With GGTTTCGCCG as the sequence, how does the switch fluorescence ratio read?
**A.** 0.985 ± 0.052

**Q.** Which switch fluorescence ratio does the source give for TAGGCGGGTG here?
**A.** 1.03 ± 0.023

**Q.** Which switch fluorescence ratio does the source give for CTTATTCGTC here?
**A.** 1.04 ± 0.025

**Q.** With AGGAAATGTT as the sequence, how does the switch fluorescence ratio read?
**A.** 1 ± 0.051

**Q.** For GCCGTAGCTC, which switch fluorescence ratio is on record?
**A.** 1.2 ± 0.078

**Q.** GGTTTTAGGA was tested. Which switch fluorescence ratio did it give?
**A.** 0.987 ± 0.025

**Q.** How did the switch fluorescence ratio turn out when TTTCTGTTTC was run?
**A.** 1.04 ± 0.052

**Q.** With TGGCCTTCGT as the sequence, how does the switch fluorescence ratio read?
**A.** 1.13 ± 0.049

**Q.** How did the switch fluorescence ratio turn out when TATTAGACTA was run?
**A.** 1.02 ± 0.022

**Q.** TGTTCCGGGT was tested. Which switch fluorescence ratio did it give?
**A.** 0.999 ± 0.048

**Q.** GTTATGCCGG was tested. Which switch fluorescence ratio did it give?
**A.** 0.97 ± 0.094

**Q.** How did the switch fluorescence ratio turn out when TCGGAGTGCT was run?
**A.** 1.04 ± 0.042

**Q.** Which switch fluorescence ratio does the source give for TCTCACGGAA here?
**A.** 1.68 ± 0.19

**Q.** How did the switch fluorescence ratio turn out when TTTGTTACAG was run?
**A.** 1 ± 0.031

**Q.** Which switch fluorescence ratio does the source give for GCTTTGGGAC here?
**A.** 1.25 ± 0.28

**Q.** How did the switch fluorescence ratio turn out when GAGATTGAGG was run?
**A.** 1.02 ± 0.038

**Q.** Which switch fluorescence ratio does the source give for TTGAGGGTTG here?
**A.** 0.987 ± 0.037

**Q.** CTCACTATGA was tested. Which switch fluorescence ratio did it give?
**A.** 0.99239 ± 0.0009

**Q.** With GATATCCATG as the sequence, how does the switch fluorescence ratio read?
**A.** 0.972 ± 0.014

**Q.** How did the switch fluorescence ratio turn out when AAAAAAGTTT was run?
**A.** 1.02 ± 0.033

**Q.** With TGGGGCCTAA as the sequence, how does the switch fluorescence ratio read?
**A.** 1.02 ± 0.013

**Q.** GTGTAATTAT was tested. Which switch fluorescence ratio did it give?
**A.** 0.9697 ± 0.0055

**Q.** TATCTAGGTC was tested. Which switch fluorescence ratio did it give?
**A.** 0.954 ± 0.086

**Q.** With TGTTGTTTAA as the sequence, how does the switch fluorescence ratio read?
**A.** 1.04 ± 0.086

**Q.** For AAAAGGTGTA, which switch fluorescence ratio is on record?
**A.** 0.99 ± 0.0095

**Q.** For TAGAGGGGGC, which switch fluorescence ratio is on record?
**A.** 0.987 ± 0.025

**Q.** For GAGAGTATAA, which switch fluorescence ratio is on record?
**A.** 0.99 ± 0.022

**Q.** With TTTATTCAAG as the sequence, how does the switch fluorescence ratio read?
**A.** 0.988 ± 0.021

**Q.** For GGATGATGGG, which switch fluorescence ratio is on record?
**A.** 1.01 ± 0.046

**Q.** How did the switch fluorescence ratio turn out when GAAAGTTAAA was run?
**A.** 1.038 ± 0.0091

**Q.** With AGGAAAGTCT as the sequence, how does the switch fluorescence ratio read?
**A.** 1.02 ± 0.066

**Q.** Which switch fluorescence ratio does the source give for TTAAGGGACG here?
**A.** 0.996 ± 0.11

**Q.** For AACGTAGTGT, which switch fluorescence ratio is on record?
**A.** 1.01 ± 0.047

**Q.** Which switch fluorescence ratio does the source give for CCAGAGGGAT here?
**A.** 0.992 ± 0.024

**Q.** For GGTTTAGCGG, which switch fluorescence ratio is on record?
**A.** 0.9809 ± 0.0033

**Q.** GTTCGGCGAA was tested. Which switch fluorescence ratio did it give?
**A.** 1.02 ± 0.024

**Q.** With AAGGGCTAGG as the sequence, how does the switch fluorescence ratio read?
**A.** 0.999 ± 0.014

**Q.** AAGTCTTGTT was tested. Which switch fluorescence ratio did it give?
**A.** 0.97636 ± 0.00051

**Q.** For TTGCTTACTT, which switch fluorescence ratio is on record?
**A.** 0.996 ± 0.019

**Q.** ATAAGCTTGC was tested. Which switch fluorescence ratio did it give?
**A.** 1.128 ± 0.0064

**Q.** AATGGATGTG was tested. Which switch fluorescence ratio did it give?
**A.** 0.991 ± 0.013

**Q.** For TAGGGAAAAC, which switch fluorescence ratio is on record?
**A.** 1.05 ± 0.12

**Q.** AGGTAAGAGG was tested. Which switch fluorescence ratio did it give?
**A.** 0.96 ± 0.026

**Q.** Which switch fluorescence ratio does the source give for GATGTATTAT here?
**A.** 1.008 ± 0.0043

**Q.** With GTGGGTTGGT as the sequence, how does the switch fluorescence ratio read?
**A.** 1.008 ± 0.0054

**Q.** For AAAGGGGTCG, which switch fluorescence ratio is on record?
**A.** 1.07 ± 0.036

**Q.** With GTTTTTAACT as the sequence, how does the switch fluorescence ratio read?
**A.** 1.012 ± 0.0075

**Q.** With TTTTAGACTG as the sequence, how does the switch fluorescence ratio read?
**A.** 1.05 ± 0.039

**Q.** For AGGATAGGGT, which switch fluorescence ratio is on record?
**A.** 1.02 ± 0.05

**Q.** With TTAAATCGTT as the sequence, how does the switch fluorescence ratio read?
**A.** 1.036 ± 0.0076

**Q.** TTGGCGTATT was tested. Which switch fluorescence ratio did it give?
**A.** 1.01 ± 0.071

**Q.** For TTTGTTATTT, which switch fluorescence ratio is on record?
**A.** 1.01 ± 0.023

**Q.** ATAAGTGAAA was tested. Which switch fluorescence ratio did it give?
**A.** 1.07 ± 0.15

**Q.** ATTACTTTTT was tested. Which switch fluorescence ratio did it give?
**A.** 1 ± 0.027

**Q.** Which switch fluorescence ratio does the source give for TATGAGTTGC here?
**A.** 1.03 ± 0.011

**Q.** With AGGGATCAGC as the sequence, how does the switch fluorescence ratio read?
**A.** 1 ± 0.008

**Q.** How did the switch fluorescence ratio turn out when AAGCACCCGT was run?
**A.** 1.12 ± 0.058

**Q.** With TAGGACTCAT as the sequence, how does the switch fluorescence ratio read?
**A.** 1.009 ± 0.0082

**Q.** For ATTTGCATGG, which switch fluorescence ratio is on record?
**A.** 1.09 ± 0.2

**Q.** For GGGTACGGGA, which switch fluorescence ratio is on record?
**A.** 1.06 ± 0.069

**Q.** For GGGGGAGTAA, which switch fluorescence ratio is on record?
**A.** 1.05 ± 0.15

**Q.** How did the switch fluorescence ratio turn out when CAGGGTTTTA was run?
**A.** 1.006 ± 0.0055
